{"source": "FireProtDB (doi:10.1021/bi050342n)", "settings": "Pseudomonas aeruginosa (strain ATCC 15692 / DSM 22644 / CIP 104116 / JCM 14847 / LMG 12228 / 1C / PRS 101 / PAO1); pH 7; 25 °C; GdnHCl; Fluorescence, CD; Tris-HCl 100 mM; reversible: Yes; whole UniProt chain shown", "data": [{"protein": "Azurin wild type, P00282 (protein) MLRKLAAVSLLSLLSAPLLAAECSVDIQGNDQMQFNTNAITVDKSCKQFTVNLSHPGNLPKNVMGHNWVLSTAADMQGVVTDGMASGLDKDYLKPDDSRVIAHTKLIGSGEKDSVTFDVSKLKEGEQYMFFCTFPGHSALMKGTLTLK", "values": [{"measurement": "denaturant m value", "result": 4.06, "unit": "kcal/mol/M"}, {"measurement": "unfolding free energy", "result": 12.9, "unit": "kcal/mol"}]}]}
